Reference: patent US20250277208A1, “Method of Peptide Library Construction and Peptides Thereof” (Alcamena Stem Cell Therapeutics, LLC, priority 2024, published 2025)
Where two headings read alike, the source gives them in different places. Square brackets hold non-standard residues; d marks the D form. Ends that are not written are not given here. Phe(4-F) = N[C@@H](Cc1ccc(F)cc1)C(=O)O; Gla = N[C@@H](CC(C(=O)O)C(=O)O)C(=O)O; Cha = N[C@@H](CC1CCCCC1)C(=O)O; hLeu = CC(C)CC[C@H](N)C(=O)O

How the values were obtained:
[1] = target: IL-6 signaling (Homo sapiens, UniProt P05231); assay: IL-6 Bioassay (Promega), luciferase reporter cells, inhibition of IL-6-induced cell signaling; format: cell-based; settings: peptides incubated with IL-6 for 10 min, IL-6 0.5 nM, cells 6 hours
Sequence of IL-6 signaling (P05231 30-212): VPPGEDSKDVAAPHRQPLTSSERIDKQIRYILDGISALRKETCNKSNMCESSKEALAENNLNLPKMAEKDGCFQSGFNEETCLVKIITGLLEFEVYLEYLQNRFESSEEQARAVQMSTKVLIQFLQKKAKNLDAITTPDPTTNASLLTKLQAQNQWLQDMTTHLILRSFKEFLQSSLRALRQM
Procedure: To verify the ability of the peptides of the invention to inhibit IL-6-signaling, they were tested with the IL-6 Bioassay Kit (Promega). This kit includes human cells engineered to express the IL-6 receptor and a luciferase reporter driven by a response element. When IL-6 binds, the IL-6R transduces intracellular signals resulting in luminescence (fluorescence). Inhibition of IL-6 interaction with the receptor leads to the decrease of the luciferase expression and lower fluorescence.
The selected peptides were incubated with IL-6 for 10 min before being added to cell culture medium. […] Peptides 27 (2), 38 (2) and 45 (2) were also tested.
The ability of peptides to inhibit IL-6 signaling pathway was tested with the IL-6 Bioassay from Promega (cat #JA2501). The bioluminescent signal is detected and quantified using Bio-Glo™ Luciferase Assay System. Different concentrations of the test peptides were mixed with IL-6 (0.5 nM) and added to the IL-6 Bioassay Cells according to the manufacturer's instructions. Cells were incubated for 6 hours in a humidified incubator at 37° C. and 5% CO2 concentration. Following incubation, 75 microliters of the Bio-Glo™ Reagent was added to the cell culture and the luminescence was measured with a Biotek Synergy HTX plate reader. Data was analyzed according to manufacturer's recommendations.

[2] = target: T1, Biotinylated recombinant human IL-6 (human, UniProt P05231 30-212, biotinylated (sites not given)); assay: SPR (Biacore), IL-6 on chip
T1 construct: In the cell bioassay IL-6 (0.5 nM) was used in solution; also called Interleukin-6; IL-6-Biotin

[3] = target: T1, Biotinylated recombinant human IL-6; assay: SPR (Biacore), IL-6 on chip; remark: listed apart in the source
[4] = target: T1, Biotinylated recombinant human IL-6; assay: cell-based or functional assay

Ac-SFRDLIRMMKVCVG-NH2 [Peptide 90, SFRDLIRMMKVCVG]
IC50 [1]: 1200 nM

SVRDLLSHNCHIVG (termini not protected) [Peptide 43]
binding result [2]: no binding (tested: 20 µM highest peptide concentration)

Ac-FAFRDLLRRMKVCVG-NH2 [Peptide 60]
binding result [3]: no binding (tested: 20 µM highest peptide concentration)

B1: Peptide 9 (peptide)
peptide: SVRDLLRRMCHIVG
notes: linear, N and C termini not protected; also called 9 (parent); parent peptide 9
Kd [2]: 2580 nM

Ac-SVRDLIRRMCHIVG-NH2 [Peptide 68]
Kd [3]: 724 nM

Ac-TIRDLLRMMKVIVG-NH2 [Peptide 84]
Kd [3]: 565 nM

Ac-SVRDLLRRMCVIVG-NH2 [Peptide 66]
Kd [3]: 283 nM

Ac-SVRDLLRRMKVCVG-NH2 [Peptide 27 (2)]
IC50, inhibition of IL-6-induced cell signaling (IL-6 Bioassay, luciferase reporter cells) [4]: 580 nM

Ac-SVRDLLRRMKVIVG-NH2 [Peptide 73]
Kd [3]: 1130 nM

Ac-SVRDLLRRMCHCVG-NH2 (cysteine pairing not given here) [Peptide 67]
binding result [3]: no binding (tested: 20 µM highest peptide concentration)

B2: Peptide 33 (peptide)
peptide: SVRDLIRMMCHIVG
notes: termini not protected; also called variant 33
Kd [2]: 545 nM

Ac-TIRDLLRRMCHIVG-NH2 [Peptide 71]
Kd [3]: 49 nM | IC50, inhibition of IL-6-induced cell signaling (IL-6 Bioassay, luciferase reporter cells) [4]: 3400 nM

Ac-SVRDLLRRMKHIVG-NH2 [Peptide 65]
Kd [3]: 150 nM

SVRDLLRRMKVCVG (termini not protected) [Peptide 27]
Kd [2]: 58 nM

Ac-SVRDLLRMMCHIVG-NH2 [Peptide 69]
Kd [3]: 172 nM

B3: Control peptide PN-2519 (peptide)
peptide: FD[Cha]DIHLL[Phe(4-F)]LPTEWEK[Gla]KNEE
notes: Printed FD(Cha)DIHLL(4F)LPTEWEK(Cla)KNEE; tested in a linear form
binding result [3]: no binding (tested: 20 µM highest peptide concentration)

B4: Control peptide PN-1974 (peptide)
peptide: H-FD[hLeu]DIHLLFLPTEWEKDKNEE-OH
SMILES: CC[C@H](C)[C@H](NC(=O)[C@H](CC(=O)O)NC(=O)[C@H](CCC(C)C)NC(=O)[C@H](CC(=O)O)NC(=O)[C@@H](N)Cc1ccccc1)C(=O)N[C@@H](Cc1c[nH]cn1)C(=O)N[C@@H](CC(C)C)C(=O)N[C@@H](CC(C)C)C(=O)N[C@@H](Cc1ccccc1)C(=O)N[C@@H](CC(C)C)C(=O)N1CCC[C@H]1C(=O)N[C@H](C(=O)N[C@@H](CCC(=O)O)C(=O)N[C@@H](Cc1c[nH]c2ccccc12)C(=O)N[C@@H](CCC(=O)O)C(=O)N[C@@H](CCCCN)C(=O)N[C@@H](CC(=O)O)C(=O)N[C@@H](CCCCN)C(=O)N[C@@H](CC(N)=O)C(=O)N[C@@H](CCC(=O)O)C(=O)N[C@@H](CCC(=O)O)C(=O)O)[C@@H](C)O
notes: linear, termini not protected
Kd [3]: 61 nM

B5: Control peptide RA07 (peptide)
peptide: INTLLSEINSILLDIISLL
notes: published peptide (Kobayashi et al. 2011) synthesized by the inventors; whether its termini were protected is not clear
binding result [3]: no binding (tested: 20 µM highest peptide concentration)

Ac-FAFRDLLSHNCHIVG-NH2 [Peptide 59]
binding result [3]: no binding (tested: 20 µM highest peptide concentration)

SVRDLPTQMCHIVG (termini not protected) [Peptide 37]
Kd [2]: 649 nM

ETIRDLLRRMCHIVG (termini not protected) [Peptide 24]
Kd [2]: 119 nM

ATIRDLLRRMCHIVG (termini not protected) [Peptide 38]
Kd [2]: 54 nM

Ac-ATIRDLIRMMCHIVG-NH2 (also called peptide variant 51) [Peptide 51]
Kd [3]: 128 nM

Ac-ATIRDLLRRMCHIVG-NH2 [Peptide 38 (2)]
Kd [3]: 115 nM | IC50, inhibition of IL-6-induced cell signaling (IL-6 Bioassay, luciferase reporter cells) [4]: 142 nM

Ac-ATIRDLIRMMKVCVG-NH2 [Peptide 82]
IC50, inhibition of IL-6-induced cell signaling (IL-6 Bioassay, luciferase reporter cells) [4]: 183 nM

CVYRDLLRRMCHIVG (termini not protected) [Peptide 35]
binding result [2]: no binding (tested: 20 µM highest peptide concentration)

Ac-SVRDLIRMMKVCVG-NH2 [Peptide 64]
Kd [3]: 1390 nM

ACMDLLRRMCHIVG (termini not protected) [Peptide 28]
Kd [2]: 2730 nM

B6: Control peptide C1 (peptide)
peptide: SVKDLQHGLRHVVG
notes: homologous to peptide 9 without its mutations (two unmutated fragments of IL-6R); whether its termini were protected is not clear
binding result [3]: no binding (tested: 20 µM highest peptide concentration)

SVRDWTPRMCHIVG (termini not protected) [Peptide 48]
Kd [2]: 2820 nM

Ac-ATIRDLLSHNCHIVG-NH2 [Peptide 52]
binding result [3]: no binding (tested: 20 µM highest peptide concentration)

B7: Peptide 44 (peptide)
peptide: H-SVRDLQKQMCHIVG-OH
notes: Printed SVRDLQKOMCHIVG (the letter O is as printed, perhaps a misprint); termini not protected
binding result [2]: no binding (tested: 20 µM highest peptide concentration)

B8: Control peptide CA11 (peptide)
peptide: NQQLIEEIIQILHKIFEIL
notes: as for B5
Kd [3]: 50800 nM

SVRDANYRMCHIVG (termini not protected) [Peptide 39]
binding result [2]: no binding (tested: 20 µM highest peptide concentration)

SVRDLQSTMCHIVG (termini not protected) [Peptide 47]
binding result [2]: no binding (tested: 20 µM highest peptide concentration)

Ac-ATIRDLLRRMKVCVG-NH2 [Peptide 53]
Kd [3]: 436 nM

Ac-FSFRDLLRMMCHIVG-NH2 [Peptide 80]
Kd [3]: 249 nM

Ac-FAFRDLLRMMCHIVG-NH2 [Peptide 75]
Kd [3]: 132 nM

Ac-FAFRDLIRMMKHIVG-NH2 [Peptide 77]
Kd [3]: 405 nM

Ac-FSVRDLLRRMCHIVG-NH2 [Peptide 61]
Kd [3]: 144 nM

Ac-FAFRDLIRMMCVIVG-NH2 [Peptide 78]
Kd [3]: 1490 nM

Ac-FSFRDLLRRMCHIVG-NH2 [Peptide 72]
IC50, inhibition of IL-6-induced cell signaling (IL-6 Bioassay, luciferase reporter cells) [4]: 23.5 nM

Ac-FSFRDLLRMMKVIVG-NH2 [Peptide 81]
Kd [3]: 1270 nM

FAFRDLLRRMCHIVG (termini not protected) [Peptide 45]
Kd [2]: 92 nM

Ac-ASVRDLLRRMCHIVG-NH2 [Peptide 54]
Kd [3]: 422 nM

Ac-FSVRDLIRMMKVCVG-NH2 [Peptide 87]
Kd [3]: 47 nM

Ac-FAFRDLIRMMKVIVG-NH2 [Peptide 76]
Kd [3]: 1300 nM

Ac-FSFRDLIRMMKVCVG-NH2 [Peptide 93]
Kd [3]: 265 nM

Ac-FAFRDLIRMMCHIVG-NH2 (also called variant 58) [Peptide 58]
Kd [3]: 71 nM

Ac-FAFRDLLRRMCHIVG-NH2 [Peptide 45 (2)]
Kd [3]: 147 nM | IC50, inhibition of IL-6-induced cell signaling (IL-6 Bioassay, luciferase reporter cells) [4]: 72 nM

SVRDLLRRMCVFWG (termini not protected) [Peptide 49]
binding result [2]: no binding (tested: 20 µM highest peptide concentration)
